Results on one molecule are retold here after US20210088514A1 (ACADEMIA SINICA, published 2021).

The assay concerns the target T1, epithelial cell adhesion molecule (EpCAM) (UniProt P16422 24-314, limits assumed).
T1 construct: whole, on cells; also called EpCAM membrane protein
T1 sequence (looked up): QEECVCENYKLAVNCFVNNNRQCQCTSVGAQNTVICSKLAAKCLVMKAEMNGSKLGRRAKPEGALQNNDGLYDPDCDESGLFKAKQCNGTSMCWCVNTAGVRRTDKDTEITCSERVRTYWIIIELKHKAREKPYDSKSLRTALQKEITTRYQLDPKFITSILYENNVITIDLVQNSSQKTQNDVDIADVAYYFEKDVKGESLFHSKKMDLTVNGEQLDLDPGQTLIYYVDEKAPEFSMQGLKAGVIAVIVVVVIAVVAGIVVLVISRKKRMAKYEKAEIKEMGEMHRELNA
Put plainly: capture of HCT116 and SAS cells on antibody surface coating, colorimetric read-out at OD 490 nm. On the procedure:
The binding specificity of biotinylated OC9801 antibody, biotinylated EpAb4-1 antibody and biotinylated EpCam antibody (commercially available from R&D system, USA) were examined using the HCT116 (colorectal) CTCs and SAS (tongue) CTCs.
The CTC binding specificy of the antibodies was determined by colorimetric method, by measuring the absorption optical density at 490 nm.

B1: biotinylated EpAb4-1 antibody (antibody, V domains shown)
VH: QIQLVQSGPELKKPGETVKISCKASGYTFTNYGMNWVKQAPGKGLKWMGWINTYTGEPTYGDDFKGRFAFSLETSASTAYLQINNLKNEDTATYFCARFGRSVDFWGQGTSVTVSS
VL: DIVMTQAAFSNPVTLGTSASISCRSSKSLLHSNGITYLYWYLQKPGQSPQLLIYHMSNLASGVPDRFSSSGSGTDFTLRISRVEAEDVGIYYCAQNLENPRTFGGGTKLEIK
modifications: biotinylated with Sulfo NHS-LC-Biotin; ratio of biotin and antibody 1.5 to 1; sites not stated
notes: Immobilised through streptavidin on the surface coating in the assay; also called bEpAb4-1; biotinylated anti-EpCam antibody
On to B1, for which the binding result was “binds”.
